B1: AB1 antibody specific to BDCA-2 (BIIB059) (antibody, V domains shown)
VH: DVQLVESGGGLVKPGGSLRLSCAASGFTFSTYTMSWVRQAPGKGLEWVATISPGDSFGYYYPDSVQGRFTISRDNAKNSLYLQMNSLRAEDTAVYYCTRDIYYNYGAWFAYWGQGTLVTVSS
VL: DIQLTQSPSSLSASVGDRVTITCKASQSVDYDGDSYMNWYQQKPGKAPKLLIYAASTLESGVPSRFSGSGSGTDFTLTISSLQPEDFATYYCQQANEDPRTFGQGTKVEIK
B2: AB2 antibody specific to NECL-5 (NTX1088) (antibody, V domains shown)
VH: QVQLVQSGAEVKKPGASVKVSCKATGYTFSNYWIEWVRQAPGQGLEWIGEIFPGSGRINFNEKFKGRVTFTADTSISTTYMELSRLRSDDTAVYYCARTKIYGNSFDYWGQGTLVTVSS
VL: DIQMTQSPSSLSASVGDRVTITCKASQDVGTAVVWYQQKPGKAPKLLIYWASSRHEGVPDRFSGSGSGTDFTLTISSLQPEDFADYFCQQYSRYPLTFGQGTKLEIK

Key:
Settings in all cases: both partners purified
[1] = molecular target: T1, Blood dendritic cell antigen 2 of macaca fascicularis (cBDCA-2) extracellular fragment (Macaca fascicularis, UniProt A0A2K5UWP4); assay: BLI; biotinylated FcγRIa on SA sensors (5 μg/mL, to 1 nm), antibodies for 300 s, then antigens 10 μg/mL for 600 s; kinetic buffer pH 7.4, 30 °C; constants from the empirical model Equation (A1), k_diss fixed
T1 construct: Blood dendritic cell antigen 2 (BDCA-2) of Macaca fascicularis, extracellular fragment, residues 45-213 of XP_005570080.1; source: CHO, transient transfection, purified (Ni-NTA, SEC Superdex 75)

[2] = molecular target: T1, Blood dendritic cell antigen 2 of …; assay: BLI; biotinylated FcRn on SA sensors (5 μg/mL, to 1 nm), antibodies 10 μg/mL for 180 s, then antigens 20 μg/mL for 300 s; kinetic buffer pH 6.0, 30 °C; constants from the empirical model Equation (A1), k_diss fixed
[3] = molecular target: T1, Blood dendritic cell antigen 2 of …; assay: BLI; ProA sensors; antibodies loaded at 10 micrograms/mL for 300 s, antigens 10 μg/mL, association 7200 s; 30 °C, PBS, 0.1% Tween 20, 0.1% BSA, pH 7.4; constants from the empirical model Equation (A1), k_diss fixed
[4] = molecular target: T2, Triggering receptor expressed on myeloid cells 2 (TREM-2) extracellular fragment (UniProt Q9NZC2-1); assay: as above
T2 construct: Triggering receptor expressed on myeloid cells 2 (TREM-2), extracellular fragment, residues 19-174 of NP_061838.1; source: CHO, transient transfection, purified (Ni-NTA, SEC Superdex 75)

[5] = molecular target: T3, Nectin-like protein 5 (NECL-5 or CD155) extracellular fragment (UniProt P15151); assay: as above
T3 construct: Nectin-like protein 5 (NECL-5, CD155, poliovirus receptor), extracellular fragment, residues 28-343 of NP_001129242.2; also called poliovirus receptor; source: CHO, transient transfection, purified (Ni-NTA, SEC Superdex 75)

[6] = molecular target: T1, Blood dendritic cell antigen 2 of …; assay: BLI; standard measurement of kinetics with the immobilization of antibodies on AR2G sensors (Sartorius)
[7] = molecular target: T1, Blood dendritic cell antigen 2 of …; assay: BLI; biotinylated FcγRIIIa on SA sensors (5 μg/mL, to 1 nm), antibodies for 300 s, then antigens 10 μg/mL for 300 s; kinetic buffer pH 7.4, 30 °C; constants from the empirical model Equation (A1), k_diss fixed
[8] = molecular target: T3, Nectin-like protein 5 (NECL-5 or CD155) …; assay: BLI; biotinylated FcγRIa on SA sensors (5 μg/mL, to 1 nm), antibodies for 300 s, then antigens 10 μg/mL for 600 s; kinetic buffer pH 7.4, 30 °C; constants from the empirical model Equation (A1), k_diss fixed
[9] = molecular target: T3, Nectin-like protein 5 (NECL-5 or CD155) …; assay: BLI; biotinylated FcRn on SA sensors (5 μg/mL, to 1 nm), antibodies 10 μg/mL for 180 s, then antigens 20 μg/mL for 300 s; kinetic buffer pH 6.0, 30 °C; constants from the empirical model Equation (A1), k_diss fixed
[10] = molecular target: T3, Nectin-like protein 5 (NECL-5 or CD155) …; assay: BLI; ProA sensors; antibodies loaded at 10 micrograms/mL for 300 s, antigens 10 μg/mL, association 7200 s; 30 °C, PBS, 0.1% Tween 20, 0.1% BSA, pH 7.4; constants from the empirical model Equation (A1), k_diss fixed; remark: listed apart in the source
[11] = molecular target: T1, Blood dendritic cell antigen 2 of …; assay: as above; remark: listed apart in the source
[12] = molecular target: T3, Nectin-like protein 5 (NECL-5 or CD155) …; assay: BLI; standard measurement of kinetics with the immobilization of antibodies on AR2G sensors (Sartorius)
[13] = molecular target: T3, Nectin-like protein 5 (NECL-5 or CD155) …; assay: BLI; biotinylated FcγRIIIa on SA sensors (5 μg/mL, to 1 nm), antibodies for 300 s, then antigens 10 μg/mL for 300 s; kinetic buffer pH 7.4, 30 °C; constants from the empirical model Equation (A1), k_diss fixed

T3 sequence (P15151 28-343): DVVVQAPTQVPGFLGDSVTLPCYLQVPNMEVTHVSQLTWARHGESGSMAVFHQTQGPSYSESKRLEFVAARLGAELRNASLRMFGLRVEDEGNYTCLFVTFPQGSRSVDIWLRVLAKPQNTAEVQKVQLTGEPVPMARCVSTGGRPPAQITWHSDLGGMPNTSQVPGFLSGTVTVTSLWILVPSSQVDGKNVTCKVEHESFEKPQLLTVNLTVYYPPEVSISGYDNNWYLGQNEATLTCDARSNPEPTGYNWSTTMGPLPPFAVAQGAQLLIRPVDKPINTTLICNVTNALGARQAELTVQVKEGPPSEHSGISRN
T2 sequence (Q9NZC2 19-174): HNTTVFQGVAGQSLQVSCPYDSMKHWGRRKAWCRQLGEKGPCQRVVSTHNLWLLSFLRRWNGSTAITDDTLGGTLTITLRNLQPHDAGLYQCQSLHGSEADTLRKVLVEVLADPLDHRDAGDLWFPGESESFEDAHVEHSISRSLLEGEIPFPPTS

kon [1] | kon [2] | kon [3] | binding result [4] | binding result [5] | koff [6] | kon [6] | kon [7] | kon [8] | kon [9] | kon [10] | binding result [11] | koff [12] | kon [12] | kon [13] | Binder
265000 M⁻¹ s⁻¹ | 180000 M⁻¹ s⁻¹ | 12000 M⁻¹ s⁻¹ | no binding (tested: 10 μg/mL) | no binding (tested: 10 μg/mL) | 3.72e-05 s⁻¹ | 134000 M⁻¹ s⁻¹ | 470000 M⁻¹ s⁻¹ |  |  |  |  |  |  |  | B1
 |  |  | no binding (tested: 10 μg/mL) |  |  |  |  | 99000 M⁻¹ s⁻¹ | 20000 M⁻¹ s⁻¹ | 52000 M⁻¹ s⁻¹ | no binding (tested: 10 μg/mL) | 0.00105 s⁻¹ | 179000 M⁻¹ s⁻¹ | 39500 M⁻¹ s⁻¹ | B2

— publication PMC12649893 (Biosensors, 2025)
